From PMC11495376

Columns and labels:
Conditions in all cases: EMSA per cited procedure (ref 27); buffer, salt, pH and temperature not given in the material
[1] = tested on: T1, TarR (Bacillus velezensis FZB42), ORF:a9b72c09; experiment: EMSA
T1 sequence: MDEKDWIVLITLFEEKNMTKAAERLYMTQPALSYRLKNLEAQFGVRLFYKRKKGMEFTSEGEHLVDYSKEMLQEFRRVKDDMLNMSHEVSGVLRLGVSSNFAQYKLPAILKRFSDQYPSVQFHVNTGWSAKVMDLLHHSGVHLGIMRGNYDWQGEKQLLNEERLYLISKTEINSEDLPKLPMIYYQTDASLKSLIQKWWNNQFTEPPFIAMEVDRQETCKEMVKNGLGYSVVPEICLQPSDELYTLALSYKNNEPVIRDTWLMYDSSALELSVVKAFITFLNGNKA

[2] = tested on: T2, TarRN1-91 (Bacillus velezensis FZB42), ORF:46dabd2b; experiment: EMSA?
T2 sequence: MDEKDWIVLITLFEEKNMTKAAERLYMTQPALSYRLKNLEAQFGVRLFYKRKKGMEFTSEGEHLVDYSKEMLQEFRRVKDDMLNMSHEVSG

[3] = tested on: T1, TarR (Bacillus velezensis FZB42), ORF:a9b72c09; experiment: DNase I footprinting

Row | Sequence | binding [1] | binding [2] | binding [3]
1 | GCTGTCTCATCCTTACATCATTTTGTGTGGATAAAAAGGTACCGGTCCCTTTGGAAAATATCGTATGATAAATAAGGATTATAAGTAAAACATATAATTTTTATAAAGTTGAATAAAAAAAATTTATAATAAGAGAAAATTTTATAGCAGAAAAATATTTTGGGGGATTTCAT (double strand) [Ptar] | binds | binds | binds
2 | AGCGAAAATATTTTTTAAAAAAGTATTGACCTAGCAAACTGAAAATGTTATGATTAAGAGGTCGCTTCGAGAGAAGCAACAAAGTTCTTTGAAAACTAAACAAGACAAAACGTACCTGTTAATTCAAAGTTTTAAATAAATCGCACAGCGATGTGCGTAGTCAGTCAAACTAC (double strand) [P16S] | no binding |  | 
